Our source for the switch fluorescence ratio values is the supplement of paper PMC10126150.

± gives the standard deviation of the averaged measurements.

The series concerns ATP. The series is described as follows: switch fluorescence ratio, 500 uM ATP over buffer (Cy3 cluster intensity, sum of 5 cycles each) (fold (ratio)); higher = stronger signal-on switching upon ATP binding; sequences stand for … in TCGTCGGCAGCGTCAGATGTGTATAAGAGACAGTTTTTTTTTTTTTTTTTTTTTTTTT…TC. The note with it: aptamer strand: ATP DNA aptamer (quencher-CACCTGGGGGAGTATTGCGGAGGAAGG + anchor), 100 nM annealed; ATP concentration: 500 uM. A digest of the protocol:
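Between each of five buffer/ATP cycles, the flow-cell was stripped with NaOH and re-annealed. Each cycle imaged Cy3-labelled switching-strand clusters, annealed to 100 nM quencher-labelled ATP aptamer on a modified Illumina MiSeq flow-cell, first in selection buffer and then after 15 min with 500 uM ATP at 22 °C. The fluorescence ratio is summed target-cycle over summed buffer-cycle Cy3 intensity per cluster, averaged per switch-domain sequence, with clusters outside 100-1000 RFU excluded.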
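Also: ATP exposure 15 min at 22 °C before imaging.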

As to TAGAACAACT, the switch fluorescence ratio turned out to be 1.21 ± 0.34. Regarding TAGAACCTCG, the switch fluorescence ratio came to 1.02 ± 0.057.

Regarding TAGAACTTCG, the switch fluorescence ratio came out at 1.014 ± 0.0077. Consider TAGAAGGGAA, for which the switch fluorescence ratio is 1.03 ± 0.063. For the sequence TAGAAGTATT, the switch fluorescence ratio came to 1.01 ± 0.027. Regarding TAGAAGTGGT, the switch fluorescence ratio was 0.9963 ± 0.0084. As for TAGAATAGGT, the switch fluorescence ratio is 0.978 ± 0.011. On to TAGAATAGTC, for which the switch fluorescence ratio is 0.974 ± 0.01. With TAGAATATAG, the switch fluorescence ratio was 0.991 ± 0.0011. As to TAGAATCGCT, the switch fluorescence ratio worked out at 1 ± 0.049. For TAGAATGTTT the value was 1.02 ± 0.012; for TAGAATTGAG, 0.984 ± 0.022; for TAGAATTGTG, 1.21 ± 0.33. Regarding TAGACAATTT, the switch fluorescence ratio turned out to be 1 ± 0.00074. As to TAGACAGCCA, the switch fluorescence ratio is 1.02 ± 0.041. For the sequence TAGACCTTAA, the switch fluorescence ratio is 1.09 ± 0.029. For the sequence TAGACGTTGG, the switch fluorescence ratio amounted to 1.02 ± 0.014. Consider TAGAGAATAT, for which the switch fluorescence ratio was found to be 0.992 ± 0.026. For TAGAGACCTG, the switch fluorescence ratio is 1 ± 0.071. On to TAGAGAGCTT, for which the switch fluorescence ratio came to 0.986 ± 0.036.

On to TAGAGAGGGC, for which the switch fluorescence ratio came to 1.011 ± 0.0093. In the case of TAGAGATGGG, the switch fluorescence ratio was 1.02 ± 0.028. Take TAGAGATTAG: the switch fluorescence ratio came to 1 ± 0.038. For TAGAGCGGGA the value was 1.008 ± 0.0087. Regarding TAGAGCGTAT, the switch fluorescence ratio turned out to be 1 ± 0.033. On to TAGAGCTAC, for which the switch fluorescence ratio worked out at 1.17 ± 0.049. For TAGAGGAAGC the value was 1 ± 0.011; for TAGAGGACGA, 1.04 ± 0.063. Turning to TAGAGGAGCT, the switch fluorescence ratio was determined as 1 ± 0.038. Take TAGAGGCGGG: the switch fluorescence ratio stood at 0.981 ± 0.025. In the case of TAGAGGGGAG, the switch fluorescence ratio amounted to 1.02 ± 0.022.

As for TAGAGGGTAC, the switch fluorescence ratio was found to be 1.19 ± 0.24.

Take TAGAGGTG: the switch fluorescence ratio amounted to 1.11 ± 0.016. For TAGAGTATCT the value was 0.999 ± 0.027; for TAGATAGTTT, 0.981 ± 0.029. With TAGATCTGGG the figure was 1.002 ± 0.0072; with TAGATGAGGC, 1.01 ± 0.061. TAGATGCAGT: the switch fluorescence ratio worked out at 1.04 ± 0.042. Turning to TAGATTTATT, the switch fluorescence ratio was 0.995 ± 0.028. Regarding TAGATTTGAT, the switch fluorescence ratio stood at 0.9664 ± 0.0028. On to TAGATTTGTA, for which the switch fluorescence ratio is 1.01 ± 0.021.

In the case of TAGCACGGCA, the switch fluorescence ratio turned out to be 1.06 ± 0.029. Regarding TAGCACTGAG, the switch fluorescence ratio came to 1.05 ± 0.043. Turning to TAGCAGGTGG, the switch fluorescence ratio was 1.15 ± 0.14. Consider TAGCCGGCGT, for which the switch fluorescence ratio came to 1.01 ± 0.013. Consider TAGCCGGGAC, for which the switch fluorescence ratio worked out at 1.25 ± 0.26. For TAGCCGGTCG the value was 0.9846 ± 0.0023. TAGCCGTCTG: the switch fluorescence ratio came out at 1.04 ± 0.039. For the sequence TAGCGATTAG, the switch fluorescence ratio was 1.01 ± 0.036. Take TAGCGGTTCG: the switch fluorescence ratio was determined as 1.01 ± 0.034.

Consider TAGCGGTTTC, for which the switch fluorescence ratio was 0.9746 ± 0.005. In the case of TAGCGTGTTG, the switch fluorescence ratio came out at 1.02 ± 0.031.

Turning to TAGCTCCGAC, the switch fluorescence ratio is 1.399 ± 0.0031. In the case of TAGCTGAGGA, the switch fluorescence ratio is 1.01 ± 0.032. As to TAGCTGCATG, the switch fluorescence ratio came out at 1.01 ± 0.017. With TAGGAACGAG the figure was 1 ± 0.024; with TAGGAAGGTA, 1.01 ± 0.018; with TAGGAATTTT, 0.984 ± 0.016. As for TAGGACGAGG, the switch fluorescence ratio was determined as 1.02 ± 0.021. As to TAGGAGAAGG, the switch fluorescence ratio came out at 1.04 ± 0.036. In the case of TAGGAGAGTT, the switch fluorescence ratio came out at 0.994 ± 0.036. Take TAGGAGATTT: the switch fluorescence ratio is 0.998 ± 0.03.

For TAGGAGGGGG, the switch fluorescence ratio is 0.995 ± 0.04. Regarding TAGGATATGG, the switch fluorescence ratio worked out at 1 ± 0.017.

Consider TAGGATCTGG, for which the switch fluorescence ratio was found to be 0.995 ± 0.027. With TAGGATGGTG the figure was 1.03 ± 0.11; with TAGGATGTCA, 1.01 ± 0.027; with TAGGATTCGA, 0.964 ± 0.016. Take TAGGCACGCG: the switch fluorescence ratio was determined as 1.027 ± 0.01. With TAGGCGGGGT, the switch fluorescence ratio turned out to be 0.977 ± 0.05.

For the sequence TAGGCGTTGG, the switch fluorescence ratio came out at 0.972 ± 0.033.

On to TAGGCTGGGT, for which the switch fluorescence ratio amounted to 0.992 ± 0.014. Take TAGGGAAAGT: the switch fluorescence ratio turned out to be 0.9607 ± 0.0022. As for TAGGGAACGC, the switch fluorescence ratio came to 1.02 ± 0.011. For the sequence TAGGGAAGGT, the switch fluorescence ratio is 1.01 ± 0.034. Consider TAGGGAGAGG, for which the switch fluorescence ratio is 0.9871 ± 0.0049. In the case of TAGGGAGGCA, the switch fluorescence ratio is 1.01 ± 0.028. For the sequence TAGGGAGGGG, the switch fluorescence ratio stood at 0.973 ± 0.028. Consider TAGGGATAG, for which the switch fluorescence ratio is 1.01 ± 0.015. With TAGGGATTCC, the switch fluorescence ratio was determined as 1.014 ± 0.0079. With TAGGGCAGTA, the switch fluorescence ratio stood at 0.99 ± 0.046.

As for TAGGGCATAT, the switch fluorescence ratio came to 1.1 ± 0.073. For TAGGGCCTTT, the switch fluorescence ratio turned out to be 0.986 ± 0.023. For the sequence TAGGGCGTGC, the switch fluorescence ratio is 0.9973 ± 0.0061. On to TAGGGCGTTC, for which the switch fluorescence ratio was determined as 1.02 ± 0.079. Take TAGGGGAACG: the switch fluorescence ratio amounted to 0.959 ± 0.0096. For TAGGGGACAG, the switch fluorescence ratio worked out at 1.03 ± 0.058. For TAGGGGAGTA, the switch fluorescence ratio was found to be 0.9792 ± 0.0068. As for TAGGGGAGTT, the switch fluorescence ratio is 0.978 ± 0.04. For TAGGGGATAC the value was 1.06 ± 0.01; for TAGGGGATTT, 1 ± 0.042; for TAGGGGCTTG, 1.014 ± 0.0011. As for TAGGGGGAGA, the switch fluorescence ratio was found to be 1.06 ± 0.043.

As for TAGGGGGCGC, the switch fluorescence ratio came to 1.02 ± 0.039. Take TAGGGGTCGT: the switch fluorescence ratio came out at 1 ± 0.02.

On to TAGGGGTTCA, for which the switch fluorescence ratio is 1.013 ± 0.002. With TAGGGTAGTG the figure was 1.01 ± 0.021; with TAGGGTATTT, 0.987 ± 0.023. Consider TAGGGTCATA, for which the switch fluorescence ratio was 1.04 ± 0.077. For TAGGGTCTGG, the switch fluorescence ratio was found to be 0.991 ± 0.04. TAGGGTGAGC: the switch fluorescence ratio amounted to 1.02 ± 0.019. Regarding TAGGGTGTGC, the switch fluorescence ratio was 1 ± 0.037. TAGGGTGTTT: the switch fluorescence ratio turned out to be 0.993 ± 0.034. As for TAGGGTTCAG, the switch fluorescence ratio was 0.993 ± 0.029. On to TAGGGTTGTA, for which the switch fluorescence ratio turned out to be 0.991 ± 0.04. As to TAGGTAATAT, the switch fluorescence ratio came to 1.02 ± 0.036. As to TAGGTATTGA, the switch fluorescence ratio worked out at 0.987 ± 0.024.

For TAGGTCCTTT, the switch fluorescence ratio was determined as 1.02 ± 0.02. Consider TAGGTCGCCG, for which the switch fluorescence ratio turned out to be 1 ± 0.044. On to TAGGTGACGG, for which the switch fluorescence ratio worked out at 0.991 ± 0.021. For TAGGTGCCTG, the switch fluorescence ratio is 1.07 ± 0.03.

As for TAGGTGCTGG, the switch fluorescence ratio is 1.04 ± 0.07. Turning to TAGGTGGGGA, the switch fluorescence ratio was found to be 1.01 ± 0.023. As for TAGGTGGGTT, the switch fluorescence ratio came to 0.982 ± 0.041.

In the case of TAGGTTAAAG, the switch fluorescence ratio is 1.01 ± 0.027.

Consider TAGGTTATGC, for which the switch fluorescence ratio was 0.974 ± 0.036.

With TAGGTTGTCA, the switch fluorescence ratio turned out to be 1.04 ± 0.024. TAGGTTGTCG: the switch fluorescence ratio was determined as 0.973 ± 0.077.

TAGGTTTCAT: the switch fluorescence ratio is 1.01 ± 0.014. As for TAGGTTTTGG, the switch fluorescence ratio was 0.989 ± 0.035.
